Source: US20240240147A1

Biological target: human B cell antigen CD19 on human B-ALL cells (human) (UniProt P15391)
Assay: cell-based or functional assay

Substance: CarP^Fc19-RFP (αCD19 scFv, human CD8 hinge/transmembrane, mouse Fcer1g aa19-86, mouse CD19 aa491-535, P2A-RFP) (from UniProt P01732 138-206; P20491 19-86; P25918 491-535)
- percent of macrophages (from mouse SCF/2i GMPs) that engulfed GFP-positive human B-ALL cells within 1 hour of co-culture: 5.23%

Substance: human CarPzFc19-RFP (αCD19 scFv, human CD8 hinge/transmembrane, human CD3ζ aa52-164, human Fcer1g aa45-86, human CD19 aa498-544) (from UniProt P01732 138-206; P20963 52-164; P30273 45-86; P15391 498-544)
- percent of macrophages (from GMPs expanded in modified SCF/2i) that engulfed GFP-labeled human B-ALL leukemia cells within 1 hour of co-culture, by flow cytometry: 28.6%

Substance: αCD19 CarP^zFc19-RFP (αCD19 scFv, human CD8 hinge/transmembrane, mouse CD3ζ aa52-164, mouse Fcer1g aa45-86, mouse CD19, P2A-RFP) (from UniProt P01732 138-206; P24161 52-164; P20491 45-86; P25918 491-535)
- percent of macrophages (from mouse SCF/2i GMPs) that engulfed human B-ALL leukemia cells within 1 hour of co-culture, by flow cytometry: 41.6%

Substance: CarP-RFP (control CarP: extracellular αCD19 scFv, CD8 transmembrane domain, RFP, no cytoplasmic signaling domain) (from UniProt P01732 138-206)
- percent of CarP-RFP macrophages (from GMPs expanded in modified SCF/2i) that engulfed GFP-labeled human B-ALL cells within 1 hour of co-culture; control CAR without signaling domain: 0.87%
- percent of macrophages (from mouse SCF/2i GMPs) that phagocytized GFP-labeled human B-ALL cells within 1 hour of co-culture; control CAR without signaling domain: 0.21%
